# Source: patent publication US8753698B2, “Anti-hypertensive functional food products” (Globus Egg Sciences B.V., priority 2004, dated 2014)
# Legend:
# SHR rats = assay: Acute oral treatment of anaesthetized SHR, blood pressure; type: in vivo, rat; details: single oral dose 1000 mg/kg, percentage change from baseline
# Experimental: (§1) This study was performed to establish the effects of acute oral treatment of anaesthetized SHR with lysozym/alcalase on blood pressure and plasma ACE activity.
# Rats: SHR rats (382-440 g) were purchased via Harlan, Horst, The Netherlands from Harlan, Oxon, United Kingdom.
# (§2) Surgery: At the day of the experiment, rats were anaesthetized and the carotid artery was cannulated for measurement of blood pressure. In addition to that, the jugular vein was cannulated to allow blood sampling for measurement of plasma ACE activity.
# (§3) Protocol: At timepoint t=0, rats were administered the study drugs by means of oral gavage using a gastric tube. Blood samples were drawn immediately prior to gavage at t=0, as well as at t=0.5, t=1, t=2, t=3, t=4, t=5 and t=6 hr thereafter. Blood pressure was recorded (mean value every 10 min) throughout the 6 hr study period;
# (§4) Study drugs: Rats were randomly administered either lysozym/alcalase or lysozym (both 1000 mg/kg; dissolved in 1 ml drinking water), or water only.
# [1] = biological target: Angiotensin-I Converting Enzyme (ACE) (Homo sapiens, UniProt P12821); assay: Determination of ACE inhibitory activity of hydrolysates in a microtiter plate (Hip-His-Leu substrate); type: biochemical; details: no digestion simulation, in %
# Chain of Angiotensin-I Converting Enzyme (ACE) (P12821 30-1306, species assumed): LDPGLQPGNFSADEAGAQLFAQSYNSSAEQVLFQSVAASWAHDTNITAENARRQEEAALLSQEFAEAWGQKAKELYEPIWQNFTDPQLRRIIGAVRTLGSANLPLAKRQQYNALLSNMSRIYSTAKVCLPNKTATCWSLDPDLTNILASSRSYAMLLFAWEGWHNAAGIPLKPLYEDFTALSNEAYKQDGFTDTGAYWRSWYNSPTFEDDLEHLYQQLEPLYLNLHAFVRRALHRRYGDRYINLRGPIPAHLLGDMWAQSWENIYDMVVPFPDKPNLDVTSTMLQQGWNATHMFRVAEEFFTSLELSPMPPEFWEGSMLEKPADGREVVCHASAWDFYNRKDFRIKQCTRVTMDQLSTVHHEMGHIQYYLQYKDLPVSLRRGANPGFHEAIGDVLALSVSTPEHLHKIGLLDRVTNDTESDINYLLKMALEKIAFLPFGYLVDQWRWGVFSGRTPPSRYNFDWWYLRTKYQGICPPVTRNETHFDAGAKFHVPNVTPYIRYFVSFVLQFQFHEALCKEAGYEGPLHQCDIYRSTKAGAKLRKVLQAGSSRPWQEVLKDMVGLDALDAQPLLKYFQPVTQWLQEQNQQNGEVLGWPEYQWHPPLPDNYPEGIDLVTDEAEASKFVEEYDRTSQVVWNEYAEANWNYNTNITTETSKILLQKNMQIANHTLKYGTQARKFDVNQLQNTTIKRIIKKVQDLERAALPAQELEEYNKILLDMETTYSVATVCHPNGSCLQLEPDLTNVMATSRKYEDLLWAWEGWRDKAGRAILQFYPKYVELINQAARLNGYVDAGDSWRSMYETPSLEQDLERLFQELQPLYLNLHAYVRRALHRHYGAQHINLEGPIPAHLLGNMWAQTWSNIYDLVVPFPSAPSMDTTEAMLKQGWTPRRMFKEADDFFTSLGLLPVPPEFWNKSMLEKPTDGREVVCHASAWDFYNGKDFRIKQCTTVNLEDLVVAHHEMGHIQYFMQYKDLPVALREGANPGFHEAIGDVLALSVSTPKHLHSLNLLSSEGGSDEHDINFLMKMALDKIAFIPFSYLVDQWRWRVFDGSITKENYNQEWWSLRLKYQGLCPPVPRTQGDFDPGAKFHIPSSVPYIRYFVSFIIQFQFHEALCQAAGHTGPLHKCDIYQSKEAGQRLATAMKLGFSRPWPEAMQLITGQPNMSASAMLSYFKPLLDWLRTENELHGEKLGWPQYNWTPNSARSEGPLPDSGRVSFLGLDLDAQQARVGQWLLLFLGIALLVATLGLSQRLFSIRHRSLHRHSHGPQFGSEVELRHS
# Experimental: ACE inhibitory activity can be measured in vitro using a spectrophotometry based assay. The assay is based on the liberation of hippuric acid from Hip-His-Leu substrate catalyzed by ACE.
# Calculation of Ace Inhibition:
# [formula] 2.4 Further (Optimized) Hydrolysis of Ovomucin with Alcalase Protocol for the DH Determination by TNBS Method Solutions: • 0.21 M Sodium phosphate buffer pH8.2 • 0.21 M NaH2PO4.H2O (25 ml solution) • 0.21 M Na2HPO4.2H2O (500 ml solution) • mix solutions to pH 8.2 • 0.05% TNBS • Dilute TNBS stock (5% solution) to 0.05% in MQ cover reagent tube with aluminium foil and store in dark place • 1% SDS solution • Leucine standard (stock 3 mM Leucine) • Dissolve Leucine in 1% SDS solution. Dilute the stock solution 20×, 10×, 4× en 2× with 1% SDS for analysis • Blank • Dilute non-hydrolysed sample in 1% SDS to a protein concentration of 0.5 mg/ml • Samples • Dilute hydrolysed protein in 1% SDS to a concentration of 0.5 mg/ml in duplo Analysis: • Pipet 15 μl sample (Leucine standard or sample) in microwell. Measure each dilution in twofold in plate (Costar, non-binding plate) • Add 45 μl 0.21 M sodium phosphate buffer pH 8.2 • Add 45 μl 0.05% TNBS. Cover plate with aluminium foil. Incubate plate for 60 minutes in a 50° C. stove. • After incubation add 90 μl 0.1 N HCl • Measure absorption at 340 nm (microplate reader) Calculation of degree of hydrolysis (DH): • Make calibration line of Leucine standard. This calibration line is used to convert absorption values of samples to NH2-equivalents.
# plasma ACE activity = biological target: T1, plasma ACE activity (Rattus norvegicus, UniProt P47820); assay: Acute oral treatment of anaesthetized SHR, plasma ACE activity; type: in vivo; details: single oral dose 1000 mg/kg
# T1 construct: effects of acute oral treatment of anaesthetized SHR with lysozym/alcalase on blood pressure and plasma ACE activity; from tissue; host or cells: blood plasma of SHR rats
# T1 sequence (P47820 36-1313): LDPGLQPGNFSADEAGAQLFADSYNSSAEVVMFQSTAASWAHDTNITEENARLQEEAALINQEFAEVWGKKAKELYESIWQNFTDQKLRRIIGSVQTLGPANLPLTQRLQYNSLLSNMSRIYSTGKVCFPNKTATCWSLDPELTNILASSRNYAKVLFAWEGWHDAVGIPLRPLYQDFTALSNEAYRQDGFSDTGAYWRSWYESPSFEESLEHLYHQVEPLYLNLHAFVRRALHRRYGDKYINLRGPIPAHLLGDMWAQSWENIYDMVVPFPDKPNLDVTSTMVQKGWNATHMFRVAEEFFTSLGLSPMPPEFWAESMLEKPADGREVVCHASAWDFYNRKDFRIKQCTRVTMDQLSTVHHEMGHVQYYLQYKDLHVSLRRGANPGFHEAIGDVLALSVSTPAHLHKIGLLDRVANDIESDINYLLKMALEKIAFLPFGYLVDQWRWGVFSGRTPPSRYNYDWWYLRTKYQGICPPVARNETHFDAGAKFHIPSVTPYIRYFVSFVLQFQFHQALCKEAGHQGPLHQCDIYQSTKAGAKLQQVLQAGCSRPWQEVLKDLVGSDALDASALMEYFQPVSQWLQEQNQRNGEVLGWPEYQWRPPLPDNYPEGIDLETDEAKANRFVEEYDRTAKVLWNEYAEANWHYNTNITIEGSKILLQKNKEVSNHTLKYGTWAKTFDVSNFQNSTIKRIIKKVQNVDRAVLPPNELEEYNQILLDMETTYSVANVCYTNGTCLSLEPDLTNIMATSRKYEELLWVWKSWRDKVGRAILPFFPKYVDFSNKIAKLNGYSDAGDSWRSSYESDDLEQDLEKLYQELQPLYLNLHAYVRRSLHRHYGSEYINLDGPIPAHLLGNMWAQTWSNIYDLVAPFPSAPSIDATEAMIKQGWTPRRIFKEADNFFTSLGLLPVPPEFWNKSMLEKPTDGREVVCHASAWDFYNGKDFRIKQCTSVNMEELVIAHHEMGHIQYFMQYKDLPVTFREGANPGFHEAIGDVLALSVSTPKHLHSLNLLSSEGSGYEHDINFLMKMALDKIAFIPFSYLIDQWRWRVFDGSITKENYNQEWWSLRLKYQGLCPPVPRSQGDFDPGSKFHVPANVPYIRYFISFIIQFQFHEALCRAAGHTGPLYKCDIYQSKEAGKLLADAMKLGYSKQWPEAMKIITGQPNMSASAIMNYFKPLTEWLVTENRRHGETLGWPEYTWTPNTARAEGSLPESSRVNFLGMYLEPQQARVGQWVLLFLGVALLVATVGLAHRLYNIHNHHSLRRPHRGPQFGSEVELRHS
# Experimental: as §1, §2, §3, §4
Substance,maximal reduction in SBP (SHR rats),ACE inhibition ([1]; conc. 0.019 mg/ml),ACE inhibition ([1]; conc. 0.056 mg/ml),ACE inhibition ([1]; conc. 0.167 mg/ml),ACE inhibition ([1]; conc. 0.500 mg/ml),maximal decrease (inhibition) of plasma ACE activity from baseline (plasma ACE activity)
"Lys UM: lysozyme, not pre-hydrolysed, nor in vitro digested; control in SHR studies",approx. 15%,0.1,1.3,−4.7,2.6,approx. 10%
"OM-UM: ovomucin, not pre-hydrolysed, nor in vitro digested",,−0.4,5.2,2.2,2.1,
